Blank lines part the entries; values can stand above or below the binder they belong to.
Experiments:
[1] = target: T1, human TIM3 on cells (transfected CHO cells, activated human T cells, Th1 cells, TILs) (human, UniProt Q8TDQ0 22-300); experiment: flow cytometry, human TIM3 positive cells (activated human T cells per paragraph 648), GMFI (PE); EC50 unit inferred, unit taken from the axis label ug/mL
T1 construct: also called hTIM3

[2] = target: T2, Human TIM3-IgV (Example 22) (human, UniProt Q8TDQ0 22-130); experiment: SPR Biacore T200, 37 C; antibody captured on anti-hFc chip, TIM3 protein as analyte, single cycle kinetics, 1:1 model
T2 construct: also called hTim3-IgV; hTIM3-IgV

[3] = target: T3, cynomolgus TIM3 on cells (transfected CHO cells, activated cyno T cells, cyno spleen) (cynomolgus); experiment: saturation binding of 125I-labeled antibody to CHO cells with cyno TIM3 (CHOcyno TIM3 25K), table row Kd, column Total; the cell has no unit, nM is taken from the concentration axis
T3 construct: also called cyno TIM3
T3 chain: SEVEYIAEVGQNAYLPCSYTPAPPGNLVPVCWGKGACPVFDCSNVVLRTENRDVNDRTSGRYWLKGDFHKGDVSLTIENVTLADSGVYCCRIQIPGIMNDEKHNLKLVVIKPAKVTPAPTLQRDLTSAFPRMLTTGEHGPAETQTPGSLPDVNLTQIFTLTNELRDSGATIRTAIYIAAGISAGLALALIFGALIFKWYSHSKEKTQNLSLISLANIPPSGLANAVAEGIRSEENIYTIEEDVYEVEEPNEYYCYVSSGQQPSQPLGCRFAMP

[4] = target: T1, human TIM3 on cells (transfected CHO …); experiment: saturation binding of 125I-labeled antibody to CHO cells with human TIM3 (CHOhu TIM3 25K), table row Kd, column Total; the cell has no unit, nM is taken from the concentration axis
[5] = target: T1, human TIM3 on cells (transfected CHO …); experiment: saturation binding of 125I-labeled antibody to CHO cells with human TIM3 (CHOhu TIM3 25K), table row Kd, column Specific Binding; the cell has no unit, nM is taken from the concentration axis and the box below

EC50 [1]: 0.0139 µg/mL
B1: anti-TIM3 monoclonal antibody 14H7 (antibody, V domains shown)
VH: QVHLVESGGGLVKPGGSLRLSCTAFSDYYMSWIRQAPGKGLEWLSYISNSGSIIYYADSVKGRFTISRDNAKNSVYLQMNSLRAEDTAVYYCARGRIGFFDYWGPGTLVTVSS
VL: not shown

Kd [2]: 14 nM
koff [2]: 0.011 s⁻¹
kon [2]: 780000 M⁻¹ s⁻¹
B2: TIM3.24 (14H7) (antibody, V domains shown)
VH: QVHLVESGGGLVKPGGSLRLSCTAFSDYYMSWIRQAPGKGLEWLSYISNSGSIIYYADSVKGRFTISRDNAKNSVYLQMNSLRAEDTAVYYCARGRIGFFDYWGPGTLVTVSS
VL: not shown
notes: also called 14H7/TIM3.24

EC50 [1]: 0.0229 µg/mL
B3: anti-TIM3 monoclonal antibody 23B3 (antibody, V domains shown)
VH: QVQLVGSGGGLVKPGGSLRLSCAASGFTFSDYYMSWIRQAPGKGLEWVSFISGSGSIIYYADSVKGRFTISRDNAKNSLDLQMNSLRAEDTAVYYCARDGMVRGMNFYGMDVWGQGTTVTVSS
VL: not shown

Kd [2]: 2.2 nM
koff [2]: 0.0013 s⁻¹
kon [2]: 600000 M⁻¹ s⁻¹
B4: TIM3.25 (23B3 VH-G6E-D79Y) (antibody, V domains shown)
VH: QVQLVESGGGLVKPGGSLRLSCAASGFTFSDYYMSWIRQAPGKGLEWVSFISGSGSIIYYADSVKGRFTISRDNAKNSLYLQMNSLRAEDTAVYYCARDGMVRGMNFYGMDVWGQGTTVTVSS
VL: not shown

EC50 [1]: 0.0116 µg/mL
B5: anti-TIM3 monoclonal antibody 13A3 (antibody, V domains shown)
VH: QLQLQESGPGLVKPSETLSLTCTVSGGSISSRSYYWGWIRQPPGKGLEWIGSIYYSGFTYYNPSLKSRVTISVDTSKNQFSLKLSSVTAADTAVYYCATGGPYGDYAHWFDPWGQGTLVTVSS
VL: not shown
notes: also called 13A3-g4

Kd [3]: 0.581 nM
Kd [4]: 0.278 nM
Kd [5]: 0.262 nM
B6: TIM3.18·IgG1.3 (antibody, V domains shown)
VH: QLQLQESGPGLVKPSETLSLTCTVSGGSISSRSYYWGWIRQPPGKGLEWIGSIYYSGFTYYQPSLKSRVTISVDTSKNQFSLKLSSVTAADTAVYYCATGGPYGDYAHWFEPWGQGTLVTVSS
VL: not shown
notes: also called TIM3.18 (13A3) IgG1.3f (N60Q/D101E)

Kd [2]: 7.1 nM
B7: Tim3.18 (13A3 VH-N60Q-D101E), constant region not stated (antibody, V domains shown)
VH: QLQLQESGPGLVKPSETLSLTCTVSGGSISSRSYYWGWIRQPPGKGLEWIGSIYYSGFTYYQPSLKSRVTISVDTSKNQFSLKLSSVTAADTAVYYCATGGPYGDYAHWFEPWGQGTLVTVSS
VL: not shown

Source: patent publication US20250115664A1 (Bristol-Myers Squibb, published 2025)
